{"source": "paper PMC2063866", "about": "(The Journal of Cell Biology, 2006)", "binders": {"B1": {"name": "Coiled-coil region of Abi1 (aa 6–124) (domain or fragment)", "chain": "MLLEEEIPSGKRALIESYQNLTRVADYCENNYIQATDKRKALEETKAYTTQSLASVAYQINALANNVLQLLDIQASQLRRMESSINHISQTVDIHKEKVARREIGILTTNKNTSRTHKI"}}, "target": "Recombinant full-length WAVE2 tagged with GST at its COOH terminus (UniProt Q9Y6W5 1-498)", "sequence (Q9Y6W5 whole entry)": "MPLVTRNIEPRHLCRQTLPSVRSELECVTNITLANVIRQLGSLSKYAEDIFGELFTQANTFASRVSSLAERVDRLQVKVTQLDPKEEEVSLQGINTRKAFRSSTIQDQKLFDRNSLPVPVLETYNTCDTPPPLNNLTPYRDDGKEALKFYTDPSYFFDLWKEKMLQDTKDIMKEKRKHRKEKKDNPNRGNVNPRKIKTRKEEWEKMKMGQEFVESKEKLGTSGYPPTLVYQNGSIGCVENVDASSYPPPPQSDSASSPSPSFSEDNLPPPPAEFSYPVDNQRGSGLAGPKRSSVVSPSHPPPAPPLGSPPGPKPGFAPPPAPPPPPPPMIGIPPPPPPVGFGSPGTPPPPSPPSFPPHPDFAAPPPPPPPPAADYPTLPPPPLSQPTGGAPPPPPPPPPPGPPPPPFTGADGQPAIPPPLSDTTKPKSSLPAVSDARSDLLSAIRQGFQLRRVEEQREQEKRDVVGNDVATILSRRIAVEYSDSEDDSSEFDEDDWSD", "assay": "dual polarization interferometry"}
{"binder": "B1", "values": [{"measurement": "Kd", "value": 600, "unit": "nM"}]}
